Experimental findings from paper PMC3945083 are described below.

In data set [1] the target is PARP-1 (purified) (UniProt P09874 1-1014). Kind of data set: pull-down.
The target in data set [2] is Flag-PARP-1 (UniProt P09874 1-1014). Description: EMSA. In general terms: A gel shift assay detects complexes by their altered migration in electrophoresis.
Sequence of Flag-PARP-1 (P09874 whole entry): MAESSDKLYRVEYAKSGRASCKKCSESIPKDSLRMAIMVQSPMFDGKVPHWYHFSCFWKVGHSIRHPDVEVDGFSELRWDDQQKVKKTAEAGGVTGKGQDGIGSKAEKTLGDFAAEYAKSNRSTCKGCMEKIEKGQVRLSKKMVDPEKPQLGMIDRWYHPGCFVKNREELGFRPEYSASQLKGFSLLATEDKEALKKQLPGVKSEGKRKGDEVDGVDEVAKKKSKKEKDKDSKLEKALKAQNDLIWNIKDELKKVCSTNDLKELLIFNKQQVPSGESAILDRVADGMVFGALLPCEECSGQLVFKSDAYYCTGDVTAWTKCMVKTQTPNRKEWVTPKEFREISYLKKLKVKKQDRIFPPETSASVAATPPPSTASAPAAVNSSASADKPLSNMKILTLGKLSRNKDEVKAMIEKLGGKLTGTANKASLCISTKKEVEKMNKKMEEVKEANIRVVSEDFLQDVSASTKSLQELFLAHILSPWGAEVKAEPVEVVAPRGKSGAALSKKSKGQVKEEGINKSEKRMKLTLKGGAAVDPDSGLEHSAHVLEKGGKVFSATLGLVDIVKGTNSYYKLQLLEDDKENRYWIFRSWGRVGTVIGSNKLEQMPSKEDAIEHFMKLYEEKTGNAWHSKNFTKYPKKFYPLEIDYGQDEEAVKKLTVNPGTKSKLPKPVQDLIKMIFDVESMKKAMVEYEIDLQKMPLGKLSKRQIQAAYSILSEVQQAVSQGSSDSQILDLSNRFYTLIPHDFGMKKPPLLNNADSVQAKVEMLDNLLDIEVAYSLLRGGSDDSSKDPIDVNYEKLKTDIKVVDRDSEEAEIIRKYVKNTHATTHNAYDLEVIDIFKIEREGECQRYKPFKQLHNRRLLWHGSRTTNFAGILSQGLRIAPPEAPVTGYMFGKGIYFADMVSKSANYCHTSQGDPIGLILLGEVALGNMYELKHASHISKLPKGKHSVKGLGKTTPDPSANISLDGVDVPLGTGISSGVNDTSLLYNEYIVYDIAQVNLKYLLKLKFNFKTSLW

Sequence of PARP-1 (purified) (P09874 whole entry): as above

B1: WT NQO1-ARE (dsDNA)
DNA 1: AAATCGCAGTCACAGTGACTCAGCAGAATCTGAGCCTAGGG
DNA 2: CCCTAGGCTCAGATTCTGCTGAGTCACTGTGACTGCGATTT
With B1, the binding result in data set [1] and in data set [2] was “binds” each time.
